Measurements: the supplement of paper PMC6757056
± gives the standard deviation of the averaged measurements.

B1: library; a variant is named by its letters at N, in order (parent)
chain: GCUGUCACCGGUGUAUUACCCUAGUGGUCGACCGGUCUGAUGAGUCUNNNNNNAGACGAAACAGC

Experiments:
hypoxanthine [1] = variants of: B1; assay: normalized RNA/DNA level with ligand (relative to sTRSVctl = 100) (log10 (% of sTRSVctl)); ligand: hypoxanthine (xanthine aptamer); higher = less ribozyme self-cleavage, higher mRNA level; conditions: ligand concentration (+) RNA-Seq: 5 mM, HEK293T, reporter: mCherry (pCS4076), ligand present: yes
Procedure, shortened: (§1)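 Total RNA, extracted with EDTA 72 h after HEK293T cells were transfected with 4 µg per 6-well well of reporter-linked ribozyme switch library plasmids, was reverse-transcribed, amplified, barcoded and sequenced. Ligand, if used, was added 1 h before transfection. RNA level was derived from RNA reads divided by DNA reads and normalized to a spiked-in non-cleaving sequence or to the top sequences. This was multiplied by 100 and log10-transformed, with the top set of 25 sequences and a ≥100 DNA read minimum.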

hypoxanthine [2] = variants of: B1; assay: normalized RNA/DNA level without ligand (relative to sTRSVctl = 100) (log10 (% of sTRSVctl)); ligand: hypoxanthine (xanthine aptamer); higher = less ribozyme self-cleavage, higher mRNA level; conditions: HEK293T, reporter: mCherry (pCS4076), ligand present: no
Procedure, shortened: as §1

GCUGUCACCGGUGUAUUACCCUAGUGGUCGACCGGUCUGAUGAGUCUGAAUCCAGACGAAACAGC [GAAUCC]
normalized RNA/DNA level with ligand (log10) (hypoxanthine [1]): 1.93 ± 0.067
normalized RNA/DNA level without ligand (log10) (hypoxanthine [2]): 1.898 ± 0.008

GCUGUCACCGGUGUAUUACCCUAGUGGUCGACCGGUCUGAUGAGUCUGAAUCUAGACGAAACAGC [GAAUCU]
normalized RNA/DNA level with ligand (log10) (hypoxanthine [1]): 1.9 ± 0.069
normalized RNA/DNA level without ligand (log10) (hypoxanthine [2]): 1.9 ± 0.044

GCUGUCACCGGUGUAUUACCCUAGUGGUCGACCGGUCUGAUGAGUCUAACACUAGACGAAACAGC [AACACU]
normalized RNA/DNA level with ligand (log10) (hypoxanthine [1]): 1.92 ± 0.044
normalized RNA/DNA level without ligand (log10) (hypoxanthine [2]): 1.859 ± 0.018

GCUGUCACCGGUGUAUUACCCUAGUGGUCGACCGGUCUGAUGAGUCUCACAAUAGACGAAACAGC [CACAAU]
normalized RNA/DNA level with ligand (log10) (hypoxanthine [1]): 1.89 ± 0.053
normalized RNA/DNA level without ligand (log10) (hypoxanthine [2]): 1.78 ± 0.034

GCUGUCACCGGUGUAUUACCCUAGUGGUCGACCGGUCUGAUGAGUCUCACAACAGACGAAACAGC [CACAAC]
normalized RNA/DNA level with ligand (log10) (hypoxanthine [1]): 1.93 ± 0.027
normalized RNA/DNA level without ligand (log10) (hypoxanthine [2]): 1.839 ± 0.018

GCUGUCACCGGUGUAUUACCCUAGUGGUCGACCGGUCUGAUGAGUCUCACAAAAGACGAAACAGC [CACAAA]
normalized RNA/DNA level with ligand (log10) (hypoxanthine [1]): 1.8939 ± 0.00066
normalized RNA/DNA level without ligand (log10) (hypoxanthine [2]): 1.76 ± 0.023

GCUGUCACCGGUGUAUUACCCUAGUGGUCGACCGGUCUGAUGAGUCUCACAAGAGACGAAACAGC [CACAAG]
normalized RNA/DNA level with ligand (log10) (hypoxanthine [1]): 1.877 ± 0.0098
normalized RNA/DNA level without ligand (log10) (hypoxanthine [2]): 1.676 ± 0.013

GCUGUCACCGGUGUAUUACCCUAGUGGUCGACCGGUCUGAUGAGUCUGAAUAUAGACGAAACAGC [GAAUAU]
normalized RNA/DNA level with ligand (log10) (hypoxanthine [1]): 1.93 ± 0.043
normalized RNA/DNA level without ligand (log10) (hypoxanthine [2]): 1.8073 ± 0.00093

GCUGUCACCGGUGUAUUACCCUAGUGGUCGACCGGUCUGAUGAGUCUGAAUUUAGACGAAACAGC [GAAUUU]
normalized RNA/DNA level with ligand (log10) (hypoxanthine [1]): 1.964 ± 0.015
normalized RNA/DNA level without ligand (log10) (hypoxanthine [2]): 1.89 ± 0.022

GCUGUCACCGGUGUAUUACCCUAGUGGUCGACCGGUCUGAUGAGUCUAAAUGUAGACGAAACAGC [AAAUGU]
normalized RNA/DNA level with ligand (log10) (hypoxanthine [1]): 1.865 ± 0.013
normalized RNA/DNA level without ligand (log10) (hypoxanthine [2]): 1.633 ± 0.013

GCUGUCACCGGUGUAUUACCCUAGUGGUCGACCGGUCUGAUGAGUCUCACAGCAGACGAAACAGC [CACAGC]
normalized RNA/DNA level with ligand (log10) (hypoxanthine [1]): 1.9491 ± 1.9e-05
normalized RNA/DNA level without ligand (log10) (hypoxanthine [2]): 1.87 ± 0.044

GCUGUCACCGGUGUAUUACCCUAGUGGUCGACCGGUCUGAUGAGUCUCACAGAAGACGAAACAGC [CACAGA]
normalized RNA/DNA level with ligand (log10) (hypoxanthine [1]): 1.97 ± 0.05
normalized RNA/DNA level without ligand (log10) (hypoxanthine [2]): 1.847 ± 0.015

GCUGUCACCGGUGUAUUACCCUAGUGGUCGACCGGUCUGAUGAGUCUUAAUUGAGACGAAACAGC [UAAUUG]
normalized RNA/DNA level with ligand (log10) (hypoxanthine [1]): 1.92 ± 0.051
normalized RNA/DNA level without ligand (log10) (hypoxanthine [2]): 1.74 ± 0.02

GCUGUCACCGGUGUAUUACCCUAGUGGUCGACCGGUCUGAUGAGUCUCAAUUCAGACGAAACAGC [CAAUUC]
normalized RNA/DNA level with ligand (log10) (hypoxanthine [1]): 1.93 ± 0.07
normalized RNA/DNA level without ligand (log10) (hypoxanthine [2]): 1.87 ± 0.058

GCUGUCACCGGUGUAUUACCCUAGUGGUCGACCGGUCUGAUGAGUCUAAAUCCAGACGAAACAGC [AAAUCC]
normalized RNA/DNA level with ligand (log10) (hypoxanthine [1]): 1.94 ± 0.055
normalized RNA/DNA level without ligand (log10) (hypoxanthine [2]): 1.829 ± 0.0029

GCUGUCACCGGUGUAUUACCCUAGUGGUCGACCGGUCUGAUGAGUCUAAAUCUAGACGAAACAGC [AAAUCU]
normalized RNA/DNA level with ligand (log10) (hypoxanthine [1]): 1.94 ± 0.089
normalized RNA/DNA level without ligand (log10) (hypoxanthine [2]): 1.9 ± 0.039

GCUGUCACCGGUGUAUUACCCUAGUGGUCGACCGGUCUGAUGAGUCUUAAUGUAGACGAAACAGC [UAAUGU]
normalized RNA/DNA level with ligand (log10) (hypoxanthine [1]): 1.89 ± 0.045
normalized RNA/DNA level without ligand (log10) (hypoxanthine [2]): 1.599 ± 0.0059

GCUGUCACCGGUGUAUUACCCUAGUGGUCGACCGGUCUGAUGAGUCUUAAUGAAGACGAAACAGC [UAAUGA]
normalized RNA/DNA level with ligand (log10) (hypoxanthine [1]): 1.91 ± 0.024
normalized RNA/DNA level without ligand (log10) (hypoxanthine [2]): 1.653 ± 0.0099

GCUGUCACCGGUGUAUUACCCUAGUGGUCGACCGGUCUGAUGAGUCUUAAUGCAGACGAAACAGC [UAAUGC]
normalized RNA/DNA level with ligand (log10) (hypoxanthine [1]): 1.93 ± 0.023
normalized RNA/DNA level without ligand (log10) (hypoxanthine [2]): 1.823 ± 0.0029

GCUGUCACCGGUGUAUUACCCUAGUGGUCGACCGGUCUGAUGAGUCUCAAUCUAGACGAAACAGC [CAAUCU]
normalized RNA/DNA level with ligand (log10) (hypoxanthine [1]): 2.01 ± 0.059
normalized RNA/DNA level without ligand (log10) (hypoxanthine [2]): 1.85 ± 0.042

GCUGUCACCGGUGUAUUACCCUAGUGGUCGACCGGUCUGAUGAGUCUCAAUCAAGACGAAACAGC [CAAUCA]
normalized RNA/DNA level with ligand (log10) (hypoxanthine [1]): 1.91 ± 0.069
normalized RNA/DNA level without ligand (log10) (hypoxanthine [2]): 1.77 ± 0.0087
